We go through two substances from PMC5758537.

For assay [1], the target named is dopamine D2 receptor (rat, endogenous) (rat (endogenous in rat striatum)) (UniProt P61169). Briefly: co-IP; rat NAc protein homogenates (300 ug), anti-D2R antibody overnight at 4 C, protein G/A, blot with anti-D1R; rats treated with saline or SKF 83959, with or without TAT-D1 (300 pmol, i.c.v.).
The target is the same in assay [2]. Briefly: FRET or BRET; in situ confocal FRET on rat brain sections, NAc (core and shell); anti-D1R-Alexa 488 (donor) and anti-D2R-Alexa 568 (acceptor) directly conjugated. For orientation: In BRET a luciferase serves as donor, and the signal depends on an acceptor being close.

Sequence of UniProt P61169 (P61169 whole entry): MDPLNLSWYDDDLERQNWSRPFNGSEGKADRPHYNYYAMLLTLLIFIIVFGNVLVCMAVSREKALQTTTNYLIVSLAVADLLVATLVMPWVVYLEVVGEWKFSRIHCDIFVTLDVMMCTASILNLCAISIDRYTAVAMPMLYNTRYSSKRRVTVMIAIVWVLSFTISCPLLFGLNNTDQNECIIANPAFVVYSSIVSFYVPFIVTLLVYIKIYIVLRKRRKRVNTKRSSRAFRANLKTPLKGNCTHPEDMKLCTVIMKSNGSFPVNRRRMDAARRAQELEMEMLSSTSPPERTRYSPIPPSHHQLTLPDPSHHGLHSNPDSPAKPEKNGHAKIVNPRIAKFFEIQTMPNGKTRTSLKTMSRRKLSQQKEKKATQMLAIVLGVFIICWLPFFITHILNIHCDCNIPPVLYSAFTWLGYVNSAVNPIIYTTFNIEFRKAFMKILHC

The substance TAT-D1 peptide showed a percent decrease of D1R co-immunoprecipitated with D2R in assay [1] greater than 50%.
As to “dopamine D1 receptor (rat, endogenous) (from UniProt P18901 1-446)”, the FRET efficiency in assay [2] worked out at 0.36.
